What was measured:
[1] = biological target: BST2 as expressed endogenously on the surface of human cell lines (B-LCL, MM1, U266, MCF-10A, MCF7, MDA-MB-231, T47D) (human) (UniProt Q10589); assay: flow cytometry on MM1 cells, mAb 1 ug/ml
[2] = biological target: BST2 as expressed endogenously on the surface of human cell lines (B-LCL, MM1, U266, MCF-10A, MCF7, MDA-MB-231, T47D) (human) (UniProt Q10589); assay: flow cytometry on U266 cells, mAb 1 ug/ml
[3] = biological target: BST2 as expressed endogenously on the surface of human cell lines (B-LCL, MM1, U266, MCF-10A, MCF7, MDA-MB-231, T47D) (human) (UniProt Q10589); assay: flow cytometry on MCF7 cells, mAb 1 ug/ml
[4] = biological target: BST2 as expressed endogenously on the surface of human cell lines (B-LCL, MM1, U266, MCF-10A, MCF7, MDA-MB-231, T47D) (human) (UniProt Q10589); assay: flow cytometry on T47D cells, mAb 1 ug/ml
[5] = biological target: BST2 as expressed endogenously on the surface of human cell lines (B-LCL, MM1, U266, MCF-10A, MCF7, MDA-MB-231, T47D) (human) (UniProt Q10589); assay: flow cytometry on B-LCL cells, mAb 1 ug/ml
[6] = biological target: BST2 as expressed endogenously on the surface of human cell lines (B-LCL, MM1, U266, MCF-10A, MCF7, MDA-MB-231, T47D) (human) (UniProt Q10589); assay: flow cytometry on MCF-10A cells, mAb 1 ug/ml
[7] = biological target: BST2 as expressed endogenously on the surface of human cell lines (B-LCL, MM1, U266, MCF-10A, MCF7, MDA-MB-231, T47D) (human) (UniProt Q10589); assay: flow cytometry on MDA-MB-231 cells, mAb 1 ug/ml
[8] = biological target: BST2 as expressed endogenously on the surface of human cell lines (B-LCL, MM1, U266, MCF-10A, MCF7, MDA-MB-231, T47D) (human) (UniProt Q10589); assay: flow cytometry on MM1 cells, mAb not preincubated
[9] = biological target: T1, BST2 long isoform (BST2-D, full length BST2, 180 amino acids) expressed on HEK293 transfectants (human, UniProt Q10589 1-161); assay: flow cytometry, hybridoma supernatant on HEK293-long cells
T1 construct: also called HEK293-long; HEK293 WT-BST2
Protocol: For flow cytometry assays, cells were detached using 0.05% trypsin-EDTA, counted, washed and resuspend with FACS Buffer (PBS, 2% FBS, 2 mM EDTA). 2×10⁵ cells in 100 ul/well were placed in U-bottom 96-well plate and centrifuged (1000 RPM/3 min/4° C.). The buffer was discarded and 100 ul of the previously collected supernatants with selected monoclonal antibodies were added to the wells and incubated on ice for 30 minutes. After incubation, the plate was washed three times with FACS buffer and 50 ul of diluted (1/250) secondary antibody (Donkey anti-mouse Allophycocyanin (APC) conjugated) were added to the wells and incubated on ice for 20 minutes protected from light. The final wash was repeated 4 times, and the samples were transferred and analyzed at the South Campus Flow Cytometry & Cell Sorting Core Laboratory at MD Anderson Cancer Center. FACS data were analyzed with FlowJo™ Software—for Windows (Version 10.6.1. Ashland, Oreg.: Becton, Dickinson and Company; 2020).

[10] = biological target: BST2 as expressed endogenously on the surface of human cell lines (B-LCL, MM1, U266, MCF-10A, MCF7, MDA-MB-231, T47D) (human) (UniProt Q10589); assay: flow cytometry on MM1 cells, mAb preincubated 10 min with Spartan protein (5 ug/ml)
[11] = biological target: T2, Spartan protein (SprT-like domain-containing protein) (human, UniProt Q9H040 1-489, limits assumed); assay: flow cytometry of MM1 cells after preincubation of the mAb with Spartan protein
T2 construct: Irrelevant protein control in the preincubation assay; also called Spartan irrelevant protein; irrelevant protein
T2 sequence (looked up): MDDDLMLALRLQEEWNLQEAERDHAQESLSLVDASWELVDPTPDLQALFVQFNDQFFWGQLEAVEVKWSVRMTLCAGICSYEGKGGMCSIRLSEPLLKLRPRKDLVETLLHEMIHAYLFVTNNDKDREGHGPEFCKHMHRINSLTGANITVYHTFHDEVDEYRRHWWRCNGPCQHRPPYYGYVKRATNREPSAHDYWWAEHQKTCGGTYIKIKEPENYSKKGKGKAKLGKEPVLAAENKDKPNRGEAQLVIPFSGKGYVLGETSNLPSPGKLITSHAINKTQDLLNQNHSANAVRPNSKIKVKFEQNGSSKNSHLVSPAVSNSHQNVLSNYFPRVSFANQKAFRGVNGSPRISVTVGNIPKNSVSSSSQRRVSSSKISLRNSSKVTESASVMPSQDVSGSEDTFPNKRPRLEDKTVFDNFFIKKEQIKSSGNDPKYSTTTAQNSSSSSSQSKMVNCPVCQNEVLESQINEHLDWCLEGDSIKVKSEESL
Protocol: A specificity assay was performed and analyzed through flow cytometry staining of MM1, a multiple myeloma cell line. In this assay, changes in the binding of the LA5 mAb to the BST2 receptor expressed on MM1 cell lines were assessed after:
As part of the characterization of the selected antibody candidate, the inventors analyzed the specificity of the new antibody by flow cytometry staining of a cell line, constitutively expressing BST2, competing the antibody binding to the cells with a recombinant BST2 protein and an irrelevant target. Staining of MM1, a multiple myeloma cell line, was assessed at different conditions to test the binding specificity of the generated monoclonal antibodies. Anti-BST2-long (clone LA5) was pre-incubated with BST2 protein for 10 minutes, before being transferred to U-bottom wells plate containing MM1 cells. […] Alternatively, Spartan protein, or SprT-like domain-containing protein, a human DNA-binding metalloprotease with 489 amino acid length and involved in the response to DNA replication errors (34, 35) was used as an irrelevant protein.

[12] = biological target: BST2 as expressed endogenously on the surface of human cell lines (B-LCL, MM1, U266, MCF-10A, MCF7, MDA-MB-231, T47D) (human) (UniProt Q10589); assay: flow cytometry on MM1 cells, mAb preincubated 10 min with recombinant BST2 protein (5 ug/ml) as competitor
[13] = biological target: T3, Recombinant human BST2 protein (Catalog number 13370-H07H, Sino Biological) (human, UniProt Q10589 49-161); assay: BLI (Octet RED384), mAb 5 ug/ml captured on anti-mouse IgG Fc (AMC) biosensors, BST2 protein 15.625-1000 nM, 1:1 model, global fit
T3 construct: Bought soluble protein; also called full length recombinant BST2 protein; full-length BST2 protein
T3 sequence (looked up): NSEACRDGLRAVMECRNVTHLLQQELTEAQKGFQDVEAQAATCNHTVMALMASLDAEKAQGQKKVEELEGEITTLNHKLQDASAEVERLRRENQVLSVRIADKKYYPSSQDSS
Protocol: Binding kinetics of the anti-BST2-long mAb clone LA5 was assessed, using Octet RED384 platform system. Briefly, antibodies were captured, as described under methods, by specific biosensors that bind the Fc region of the antibody. Based on prior experiments and certain standard operations procedures, 5 ug/ml was selected as the fixed concentration for the mAb. Various concentrations of the full length recombinant BST2 protein were used to assess the antibody affinity. The interaction was analyzed with a 1:1 binding model, involving both the association and the dissociation steps.

percentage of cell staining [1]: 98.6%
percentage of cell staining [2]: 96.1%
percentage of cell staining [3]: 0.43%
percentage of cell staining [4]: 2.6%
percentage of cell staining [5]: 99.3%
percentage of cell staining [6]: 2.4%
percentage of cell staining [7]: 1%
staining percentage of the MM1 cells [8]: 85.2%
percentage of cells stained [9]: 58.3%
staining percentage of the MM1 cells [10]: 83.9%
binding result [11]: no binding (tested: 5 ug/ml)
staining percentage of the MM1 cells [12]: 5.01%
Kd [13]: 4.61 nM
koff [13]: 0.000921 s⁻¹
kon [13]: 200000 M⁻¹ s⁻¹
B1: anti-BST2-long monoclonal antibody clone LA5 (antibody, mouse IgG1, V domains shown)
VH: EVQLQQSGAELVRSGASVNLSCTASGFNIKDYYIHWVKQRPERGLEWIGWIDPENGDTEYAPEFQGKASMTADTSSNTAYLQLSSLTSEDTAVYYCKRGDWGQGTLVTVSA
VL: DVLMTQTPLSLPVSLGDQASISCRSSQSIVHSNGNTYLEWFLQKPGQSPKLLIYKVSNRFSGVPDRFSGSGSGTDFTLKISRVEAEDLGVYYCFQGSHAPFTFGSGTELEIK
notes: Mouse hybridoma antibody; Used as hybridoma supernatant in the screening assays and as Protein A purified mAb afterwards; also called LA5 mAb; MAb LA5

From patent US20230235074A1 (University of Texas, published 2023)
